Results as given in patent US9481870B2, “Nucleic acid encoding a polypeptide having aminotransferase activity, vectors and host cells comprising the nucleic acid” (KANEKA CORPORATION, priority 2010, dated 2016).

Assay: Transamination activity assay (activity assay A), activity for (S)-1-phenethylamine
Type: biochemical
Conditions: (S)-1-phenethylamine 25 mM, sodium pyruvate 25 mM, pH 8.0, 30° C., 5 minutes
Description: The above transamination activity can be determined by the following method. Specifically, first, a purified polypeptide is added to a substrate solution having the following composition so that the total volume is 1 mL. After 5 minutes of reaction at 30° C., 0.05 mL of 6N hydrochloric acid is added to stop the reaction. The reaction solution is then analyzed by HPLC under the following conditions and then the quantity of the thus generated acetophenone is determined (hereinafter, referred to as “activity assay A”).
The transamination activity of purified TPM was examined under the following activity assay conditions. Specifically, purified TPM was added to a substrate solution with the composition given below to a total amount of 1 mL. After 5 minutes of reaction at 30° C., 0.05 mL of 6N hydrochloric acid was added to stop the reaction. HPLC analysis was conducted under the following conditions.
[High Performance Liquid Chromatography (HPLC) Analysis Conditions] • Column: Wakosil-II 5C18 RS (Wako Pure Chemical Industries, Ltd.) • Eluent: 10 mM potassium phosphate buffer (pH5.3): acetonitrile=3:2 • Flow rate: 1 mL/minute • Detection: 241 nm • (1) Activity for (S)-1-phenethylamine: […]

B1: TPM: purified aminotransferase polypeptide from Pseudomonas sp. MV37, about 50,000 molecular weight, amino acid sequence SEQ ID NO: 1 (protein, listed as Pseudomonas sp.)
chain: MNHLEKMLELDRNHLIHPHLPKSEFSRTIFARGKGCKLWDTEGREYLDATGGLWLAQIGHGREEIAEVAARQMKQLEYFTCFWDFSNERAIELAEKLARLAPGDLEMSFFTSGGSEGDDAAIKTARYYHSQRGEPKRTWILSRNNAYHGLAYGGGTATGFPELRDGMGPGLPHVAYLTQPNAYRHYYFDGQNPTDFCVSELEKMIASIGAENIAAMIAEPIMGVGGMVPPPVDYWPRMSQVLKKNGILLIFDEVVSAFGRSGHWFAAEKYGVIPDIMVTAKGISSGYIPLGAVIMSRDVADTVREGHGYPLGYTYSGHPVACAVALENLRILEDEDLINRSNHMGTYIAEQLTALRDNPCVGEVRQAGMGIGIELVTDKESRQPLPDAALVIPDIIREETGVIVRISNATNLCMSPPLTMSREEADRAVEAVCSVLSRVKPDGKV
With B1 the “Transamination activity for (S)-1-phenethylamine” value was 11.8 U/mg.
